Experimental data published in patent US7041288.
pKd: −log10 of the molar value.

Key:
[1] = molecular target: human IgE (SUS-11 IgE) (human) (UniProt P01854); test: SPR (BIAcore), IgE amine-coupled to CM5 chip, monophasic model
[2] = molecular target: human IgE (SUS-11 IgE) (human) (UniProt P01854); test: competition ELISA: SUS-11 IgE (1 µg/ml) pre-incubated with the antibody, captured on anti-IgE Le27; blocked ligand is HRP-labeled FcεRIα-HSA-FcεRIα (DFP); binding without competitor = 100 %

UniProt P01854, sequence (P01854 other isoform, or with tags, fused parts or gaps): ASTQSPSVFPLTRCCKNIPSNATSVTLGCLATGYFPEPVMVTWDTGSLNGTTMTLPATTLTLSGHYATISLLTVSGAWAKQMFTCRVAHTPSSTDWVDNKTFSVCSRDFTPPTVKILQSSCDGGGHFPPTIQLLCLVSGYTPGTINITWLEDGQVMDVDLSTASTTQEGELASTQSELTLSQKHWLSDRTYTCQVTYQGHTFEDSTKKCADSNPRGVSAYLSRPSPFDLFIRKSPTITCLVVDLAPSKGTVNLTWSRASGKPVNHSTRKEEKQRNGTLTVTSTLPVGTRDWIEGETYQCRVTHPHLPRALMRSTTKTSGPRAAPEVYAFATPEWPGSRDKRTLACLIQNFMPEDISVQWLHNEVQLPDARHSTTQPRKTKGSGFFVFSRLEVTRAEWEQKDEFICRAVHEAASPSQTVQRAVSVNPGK

pKd [1]: 9.28
koff [1]: 4.2e-06 s⁻¹
kon [1]: 8000 M⁻¹ s⁻¹
IC50 (read off the curve) [2]: 0.4 µg/mL
Substance: BSW17, mouse monoclonal anti-human IgE antibody (hybridoma ECACC 96121916)
